Experimental data reported in the supplement of paper PMC9170038.

test system: K4 kissing-loop RNA reporter; assay: apparent KD of K4 kissing-loop reporter; higher = weaker reporter binding; conditions: Eterna round: R107; input ligand: none
Protocol: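 RNA-MaP round R107: designed RNA switches with theophylline, tryptophan, arginine or FMN aptamers are transcribed on-chip within common flanks. They are titrated with a labelled K4 kissing-loop RNA reporter in RNA-MaP buffer (100 mM Tris pH 7.5, 80 mM KCl, 4 mM MgCl2), without ligand or with the indicated ligand. Median apparent KD per design.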
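Note: bound reporter read as fluorescence of individual clusters on recovered sequencing chips by microscopy, with normalized cluster intensities fitted with a binding model.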

Sequence	apparent KD of K4 kissing-loop reporter [nM]
CACUUACGUAGUGAUGUUACGAUCUCUGAUACCAGACAACUCUAAGUCCCUUGGCAGCAGUCAUUUUGCUUAUAAUUUACUCAAA [JR_ExcTheophyA_Sub015]	786
GGAUUGCCAGUGAUGUUGGCAUAAACUGAAGGAGCGCGUGAAAACGCAGGUAGGUCGCAGAACCUUGCCAACUGAUCGAAAGAUC [Ex Arginine A K4 29]	121
GCGCGUCAUGUCAGCGGUGCCUAUGUCGAUACCAGCGCCGCAAGGCGCCCUUGGCAGCGACGCGCUGGAGUGAUGUUCCAGCGUG [#2 Exclusion - Theophylline A Attempt #11 (HarryS)]	153
UGUAUCAUCUAAGGAUAUAUCAUGUGAUGCACCGAGUAUCGCAUCAAUUCUGAGUGAUGUUCAGGUAUAGAAGGUAGAUGAUGCA [FMN B SS t2]	212
AAACAUCACUGGGAGUGAUGUUCUCAGUGACGAGGACCGGUACGGCCGCCACUCGCGAGAGAUCUAGUCUAGUCUUGACUGCAUU [Excl Tryptophan A V13]	292
AUUUUUUUGUCAGGAUAUUAGUAUGCAUUUAGUUUGUUAGUGAUGUUGAUAUUUUGUUUAUGUAUUUAAGAAGGGAUUUAGCGGU [iiikmullin]	335
AUCACAGUGAUGUUGUGAUAUGGUACAGAUACCAGACUAGUGCUAGUCCCUUGGCAGCUGUACUCAGCAGCACCACUAGCACUCG [Theo A Ex t6b]	145
CGAGUGAUGUUCGUUCGUUUAUUUCUUUGACAGGAUAUGCGGAAACGCAGAAGGGUCACCUUUGAGUUAAAGGAAUUUACGUUAU [Ex FMN A 26]	599
UUAAUAUUGUCGGCCGCCACUGUUUAGUAUUUUGUAUAAUCUAUUUCAAAGUGAUGUUUUGAUUCCAGGACCGGGACAUUUGAUA [JR_Nu_ExcTryptoB_Sub031]	536
UGAUACCAGACUGAUACCAGCUAGUGAUGUUAGCUGAAAUCAGGGUCAAAGACCCUGUCUGGCCCUUGGCAGCAGUCUGGUAUCU [TheoBX 18 #SwitchBubble #StaticStem]	76.2
GCGCGGGAGUGAUGUUCCAAGUGGUGUUAACGAGGACCGGUACGGCCGCCACUCGUUACGGCCGGGCCGUAGGAUACACUGGCGC [Same State - Tryptophan A (Freestyle 16)]	274
GCCUAGCAGGGAAGGAGCGCCAUAUAAUUAAAAGGUAAUUAAUGAGUGAUGUUCAAAUAAUGGCAGGUAGGUCGCCCUGCUAGGC [KL-SSArg B10]	283
AGACCACAAAGUGGUCAGUGUUCGCUGCAGCGAGGACCGGUACGGCCGCCACUCGCGAGUGAUGUUCGCGAGCGCAGCGAACACA [Omei KL Tryp A Exc A v5]	92.6
GCGAACAUUCGCAGUGAUGUUGCGACGGAAGGAGCGCGUGAAAACGCAGGUAGGUCGCCGACAUACUUAAUUUUACAGUGUUCGC [Arginine A K4 29]	294
UUGUGCAGCAAACGAGUGAUGUUCGACGAUACCAGCCUCGAUAGAGGCCCUUGGCAGCGUAAUAAUCACAGCCAAGGGCUGCACU [#SwitchBubble 4]	749
GUGCAAAGCACCGGCACGAGCAGCCUAAAGGAGGAUAUGACGAAAGUCAGAAGGCCUAGUGAUGUUAGGCCUUGCUUGAGUCGAA [Omei KL FMN A Exc B v1]	169

same assay, conditions: Eterna round: R107; input ligand: theophylline 20 uM

Sequence	apparent KD of K4 kissing-loop reporter [nM]
CGCAAGCAGCCAGUGAUGUUGGCCGCCUUGCGAGGACCGGUACGGCCGCCACUCGAAGGCGGCUACUGGUAAUCCGUCUAACGGA [Lareus]	68.4
AAACGUUGGUCGGAUACCAGCUUGAUCGGAAAACGAUCUGCUGGAGUGAUGUUCCAAUAAAGCCCUUGGCAGCCGACCGACGAAA [MAT - Same State Theophlline B - Mod of Eli - D15]	746
GCCUACGAUGCAGGAUAUAGCUCGCGAGUGAUGUUCGCAGCUGUAUGGUAGUAAACUUCCACGUGUCUAGAAGGGCAUCGUAGGC	80
AAAUUCUUUUUUUUAUUUAACUUUUCAGAAGGAGCGUGGUAGUACACAGGUAGGUCGCUGAAUUUUGGGCUAGUGAUGUUAGUUA [whbob_SS_Arginine_A_sa113]	311
UCCGUUGCGGCGGCCGCCACUGACUUAUUGAUUAGGUUGCCAGUGAUGUUGGCCACCGGUCAAUACAGGACCGGGCCAUAGCGGG [Retive]	148
GUCCCAGUGAUGUUGGUAGGCGAGCGGGAUACCAGCCAAGACUCAGGCCCUUGGCAGCCCACAUAUCCCACGUAGGGAUUAGCUC [Same State - Theophylline A (Freestyle 19)]	256
AAUUCCUGUUAUGAUACCAGAAAUCACAGCAACCUGCCUACCUAGUGAUGUUAGGAGAAUUUCCCUUGGCAGCAUCGACUGAAGG [theeternabot_sameState_KL_Theo_B_38]	151
UGACUGGACUGAAGGAGCGAGCGAGACAAAGUCUCGAAAAUUCAGUGAUGUUGAAAUAUAACUCAGGUAGGUCGCAGUCUAGUCU [ArgBS 4 #SwitchBubble #StaticStem]	313
AAUAUACAGGGAAGGAGCGCCGUCCAGUGAUGUUGGAGUUAAAUACCAGUGAUGUUGGUUAGGCAGGUAGGUCGCCCUAAAGUAU [Exclusion Arginine B Gf 2]	102
CGUGAAGACCAGAGGUGAUGUAUAGUAUCGCGAGGACCGGUACGGCCGCCACUCGUGAAGAGAAAGGAGUGAUGUUCCGUAAUGG [C12]	326
AAACGUCGGAAGUGAUGUUGAUGACGUAGUAAGGAUAUUGGACGCGCAAGAAGGUACUGGCAAACUAAGGACAUCCUGGAUAUUC [theeternabot_exclusion_KL_FMN_A_47]	243
GCACGUACCCGAAGGAGCGUGCAAGAAUCGUAGUGAUGUUACGGAGAGUGUCACGCCGUCGCACAGGUAGGUCGCGGGUACGUGC	63.2
UAGACCUACUCAGGAUAUCCGCAGUGAUGUUGCGGUUGGCCUGAGCGACAUGAAAAUCUUACUAAAGGAGAAGGGAGAGGGUUAC [Ratiteus]	69.7
UAUAUAUGAUGUGAUACCAGUGAAGAGCCAGUGAUGUUGGUAGAACUGGUAUAUAAAUAACACCCUUGGCAGCACAAUCACGUAU [whbob_Ex_Theo_B_sa97]	212
UUCAGGUGUUCGGCCGCCACUCCAGUGAUGUUGGAGUGGCUUCACAAGGGCCAGGACAAUGUAGGGAGGACCGGGAAUAUCGCAG [Atvebeance]	107
UGGAGUUGACGAAAAGUCAACUCCUGAGAAGGAGCGGACGAAAGUCCAGGUAGGUCGCUCACUAGCAGUGAUGUUGCUACAUAAA [#OpenEnded 2]	253
CACUUACGUAGUGAUGUUACGAUCUCUGAUACCAGACAACUCUAAGUCCCUUGGCAGCAGUCAUUUUGCUUAUAAUUUACUCAAA [JR_ExcTheophyA_Sub015]	646
GGAUUGCCAGUGAUGUUGGCAUAAACUGAAGGAGCGCGUGAAAACGCAGGUAGGUCGCAGAACCUUGCCAACUGAUCGAAAGAUC [Ex Arginine A K4 29]	122
GCGCGUCAUGUCAGCGGUGCCUAUGUCGAUACCAGCGCCGCAAGGCGCCCUUGGCAGCGACGCGCUGGAGUGAUGUUCCAGCGUG [#2 Exclusion - Theophylline A Attempt #11 (HarryS)]	138
UGUAUCAUCUAAGGAUAUAUCAUGUGAUGCACCGAGUAUCGCAUCAAUUCUGAGUGAUGUUCAGGUAUAGAAGGUAGAUGAUGCA [FMN B SS t2]	259
AAACAUCACUGGGAGUGAUGUUCUCAGUGACGAGGACCGGUACGGCCGCCACUCGCGAGAGAUCUAGUCUAGUCUUGACUGCAUU [Excl Tryptophan A V13]	359
AUUUUUUUGUCAGGAUAUUAGUAUGCAUUUAGUUUGUUAGUGAUGUUGAUAUUUUGUUUAUGUAUUUAAGAAGGGAUUUAGCGGU [iiikmullin]	340
AUCACAGUGAUGUUGUGAUAUGGUACAGAUACCAGACUAGUGCUAGUCCCUUGGCAGCUGUACUCAGCAGCACCACUAGCACUCG [Theo A Ex t6b]	153
CGAGUGAUGUUCGUUCGUUUAUUUCUUUGACAGGAUAUGCGGAAACGCAGAAGGGUCACCUUUGAGUUAAAGGAAUUUACGUUAU [Ex FMN A 26]	539
